Here are results for one protein from article PMC3185932, “A truncated form of CD9-partner 1 (CD9P-1), GS-168AT2, potently inhibits in vivo tumour-induced angiogenesis and tumour growth” (British Journal of Cancer, 2011).

This series deals with the molecule itself. Description: SDS-PAGE (Coomassie blue) and Western blot of the purified protein; purified GS-168AT2; 36 kDa band seen by Coomassie blue and recognised by 229T mAb. In general terms: In western blotting, separated proteins are transferred to a membrane and probed.

B1: GS-168AT2, truncated form of CD9 partner-1 (CD9P-1), amino acid 724-832 (domain or fragment, human, UniProt Q9P2B2 724-832, looked up)
chain: DMAFDVSWFAVHSFGLDKAPVLLSSLDRKGIVTTSRRDWKSDLSLERVSVLEFLLQVHGSEDQDFGNYYCSVTPWVKSPTGSWQKEAEIHSKPVFITVKMDVLNAFKYP
notes: CD9 partner-1 (CD9P-1/FPRP/EWI-F), human, amino acid 724-832: the unglycosylated extracellular portion next to the transmembrane domain; cDNA from RNA of human endothelial cells; no removal of the tag is described. pET-30 EK/LIC is known to add His and S tags at the N-terminus (surmised); also called truncated CD9P-1; source: E. coli BL21(DE3)pLys, purified from the insoluble fraction in urea …
In the case of B1, the binding result is listed as “binds”.
